Results taken from patent publication US20250152742A1, “COMPOSITIONS AND METHODS FOR NEUROLOGICAL DISEASES” (Trames Bio, Inc., priority 2022, published 2025).
Positions count from the first letter of the chain named. Numbers in names are those of the source.

Tested on: engineered chimeric receptor SEQ ID NO: 33 and its mutants (human α7-nAChR ligand binding domain / human GlyRα1 ion pore domain) in Lenti-X 293T cells
Assay: YFP fluorescence quenching anion reporter plate reader assay (percent quench, EC50)
Format: cell-based
Conditions: for YFP fluorescence quenching using CNL001 (percent quench): receptor named in row; for YFP fluorescence quenching using Varenicline, 3 nM var: ligand Varenicline 3 nM; for YFP fluorescence quenching using Varenicline, 30 nM var: ligand Varenicline 30 nM; for YFP fluorescence quenching using Varenicline, 300 nM var: ligand Varenicline 300 nM; for YFP fluorescence quenching using Varenicline, 500 nM var: ligand Varenicline 500 nM; for YFP fluorescence quenching using Varenicline, 1 uM var: ligand Varenicline 1 uM
Method in brief: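 Percent quench compares mean YFP signal over the final 10 s with the 15 s baseline before ligand, added in iodide-containing extracellular solution (pH 7.2). Cells were LX293T carrying a YFP anion reporter, transiently transfected with the channel construct; plates were preincubated 30 min at 37 °C.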

[1] = 1 nM CNL001, first column so headed
[2] = 1 nM CNL001, second column so headed
[3] = 10 nM CNL001, first column so headed
[4] = 10 nM CNL001, second column so headed
[5] = 50 nM CNL001, first column so headed
[6] = 50 nM CNL001, second column so headed
[7] = 100 nM CNL001, first column so headed
[8] = 100 nM CNL001, second column so headed
[9] = 1 uM CNL001, first column so headed
[10] = 1 uM CNL001, second column so headed

B1: CODA1157: engineered receptor: Q139E, S172D in SEQ ID NO: 33 (protein)
chain: MRCSPGGVWLALAASLLHVSLQGEFQRKLYKELVKNYNPLERPVANDSQPLTVYFSLSLLQIMDVDEKNQVLTTNIWLQMSWTDHYLQWNVSEYPGVKTVRFPDGQIWKPDILLYNSADERFDATFHTNVLVNSSGHCEYLPPGIFKSSCPMDLKNFPMDVQTCKLKFGSWDYGGWSLDLQMQEADISGYIPNGEWDLVGIPGKRSERFYECCKEPYPDVTFTVTMRRRMGYYLIQMYIPSLLIVILSWISFWINMDAAPARVGLGITTVLTMTTQSSGSRASLPKVSYVKAIDIWMAVCLLFVFSALLEYAAVNFVSRQHKELLRFRRKRRHHKSPMLNLFQEDEAGEGRFNFSAYGMGPACLQAKDGISVKGANNSNTTNPPPAPSKSPEEMRKLFIQRAKKIDKISRIGFPMAFLIFNMFYWIIYKIVRREDVHNQ
modifications: synthetic sequence of chimeric LGIC
- YFP fluorescence quenching using CNL001 (percent quench) [1]: 68.362%
- YFP fluorescence quenching using CNL001 (percent quench) [2]: 69.495%
- YFP fluorescence quenching using CNL001 (percent quench) [3]: 75.078%
- YFP fluorescence quenching using CNL001 (percent quench) [4]: 74.193%
- YFP fluorescence quenching using CNL001 (percent quench) [5]: 77.481%
- YFP fluorescence quenching using CNL001 (percent quench) [6]: 77.205%
- YFP fluorescence quenching using ABT-126 (percent quench) (50 nM abt (ABT-126)): −26.77%
- YFP fluorescence quenching using CNL001 (percent quench) [7]: 77%
- YFP fluorescence quenching using CNL001 (percent quench) [8]: 77.042%
- YFP fluorescence quenching (percent quench) (100 nM CNL002): 80.62%
- YFP fluorescence quenching using ABT-126 (percent quench) (100 nM abt (ABT-126)): −24.64%
- YFP fluorescence quenching using ABT-126 (percent quench) (300 nM abt (ABT-126)): −10.64%
- YFP fluorescence quenching using CNL001 (percent quench) [9]: 78.2%
- YFP fluorescence quenching using CNL001 (percent quench) [10]: 76.244%
- YFP fluorescence quenching (percent quench) (1 uM CNL002): 81.32%
- YFP fluorescence quenching using ABT-126 (percent quench) (1 uM abt (ABT-126)): 19.57%
- YFP fluorescence quenching using ABT-126 (percent quench) (10 uM abt (ABT-126)): 55.64%
- YFP fluorescence quenching (percent quench) (10 uM ach (acetylcholine)): −36.89%
- YFP fluorescence quenching (percent quench) (30 uM ach (acetylcholine)): −37.78%
- YFP fluorescence quenching (percent quench) (100 uM ach (acetylcholine)): −25.67%
- YFP fluorescence quenching (percent quench) (300 uM ach (acetylcholine)): −18.94%
- YFP fluorescence quenching (percent quench) (1 mM ach (acetylcholine)): 16.38%
- YFP fluorescence quenching (percent quench) (3 mM ach (acetylcholine)): 45.71%
- YFP fluorescence quenching using Varenicline, 3 nM var (first column): −0.225
- YFP fluorescence quenching using Varenicline, 3 nM var (second column): −1.954
- YFP fluorescence quenching using Varenicline, 30 nM var (first column): 1.269
- YFP fluorescence quenching using Varenicline, 30 nM var (second column): 5.972
- YFP fluorescence quenching using Varenicline, 300 nM var (first column): 6.84
- YFP fluorescence quenching using Varenicline, 300 nM var (second column): 5.943
- YFP fluorescence quenching using Varenicline, 500 nM var (first column): 8.717
- YFP fluorescence quenching using Varenicline, 500 nM var (second column): 6.41
- YFP fluorescence quenching using Varenicline, 1 uM var (first column): 5.635
- YFP fluorescence quenching using Varenicline, 1 uM var (second column): 7.068

B2: CODA1173: engineered receptor: S172D, Y210W in SEQ ID NO: 33 (protein)
chain: B1 chain with E139Q, Y210W
modifications: synthetic sequence of chimeric LGIC
- YFP fluorescence quenching using CNL001 (percent quench) [1]: 16.321%
- YFP fluorescence quenching using CNL001 (percent quench) [2]: 30.264%
- YFP fluorescence quenching using CNL001 (percent quench) [3]: 61.978%
- YFP fluorescence quenching using CNL001 (percent quench) [4]: 65.343%
- YFP fluorescence quenching using CNL001 (percent quench) [5]: 73.006%
- YFP fluorescence quenching using CNL001 (percent quench) [6]: 74.903%
- YFP fluorescence quenching using ABT-126 (percent quench) (50 nM abt (ABT-126)): 5.15%
- YFP fluorescence quenching using CNL001 (percent quench) [7]: 76%
- YFP fluorescence quenching using CNL001 (percent quench) [8]: 76.759%
- YFP fluorescence quenching (percent quench) (100 nM CNL002): 70.15%
- YFP fluorescence quenching using ABT-126 (percent quench) (100 nM abt (ABT-126)): 25.08%
- YFP fluorescence quenching using ABT-126 (percent quench) (300 nM abt (ABT-126)): 66.86%
- YFP fluorescence quenching using CNL001 (percent quench) [9]: 76.928%
- YFP fluorescence quenching using CNL001 (percent quench) [10]: 76.619%
- YFP fluorescence quenching (percent quench) (1 uM CNL002): 77.33%
- YFP fluorescence quenching using ABT-126 (percent quench) (1 uM abt (ABT-126)): 66.94%
- YFP fluorescence quenching using ABT-126 (percent quench) (10 uM abt (ABT-126)): 78.67%
- YFP fluorescence quenching (percent quench) (1 mM ach (acetylcholine)): −6.12%
- YFP fluorescence quenching (percent quench) (3 mM ach (acetylcholine)): 11.31%
- YFP fluorescence quenching using Varenicline, 3 nM var (first column): 9.211
- YFP fluorescence quenching using Varenicline, 3 nM var (second column): 7.193
- YFP fluorescence quenching using Varenicline, 30 nM var (first column): 7.821
- YFP fluorescence quenching using Varenicline, 30 nM var (second column): 9.078
- YFP fluorescence quenching using Varenicline, 300 nM var (first column): 6.933
- YFP fluorescence quenching using Varenicline, 300 nM var (second column): 8.36
- YFP fluorescence quenching using Varenicline, 500 nM var (first column): 5.501
- YFP fluorescence quenching using Varenicline, 500 nM var (second column): 7.04
- YFP fluorescence quenching using Varenicline, 1 uM var (first column): 7.174
- YFP fluorescence quenching using Varenicline, 1 uM var (second column): 5.185
